Measurements taken from the supplement of paper PMC10065799, “High-throughput profiling of sequence recognition by tyrosine kinases and SH2 domains using bacterial peptide display” (eLife, 2023).
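Note: 11-residue human phosphosite peptides and single-mutation variants displayed on the E. coli surface, counted by deep sequencing, each peptide's frequency after selection divided by its frequency in the unselected input library; frequency after pTyr selection over input frequency; kinase dosed for 20-30% of maximal phosphorylation in three min.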

Each sequence was assayed against EPHB1 (UniProt P54762) (assay: phosphorylation enrichment, bacterial display (enrichment ratio); higher = better substrate or ligand; peptides without Tyr show the background).
EPHB1, sequence (P54762 whole entry, looked up): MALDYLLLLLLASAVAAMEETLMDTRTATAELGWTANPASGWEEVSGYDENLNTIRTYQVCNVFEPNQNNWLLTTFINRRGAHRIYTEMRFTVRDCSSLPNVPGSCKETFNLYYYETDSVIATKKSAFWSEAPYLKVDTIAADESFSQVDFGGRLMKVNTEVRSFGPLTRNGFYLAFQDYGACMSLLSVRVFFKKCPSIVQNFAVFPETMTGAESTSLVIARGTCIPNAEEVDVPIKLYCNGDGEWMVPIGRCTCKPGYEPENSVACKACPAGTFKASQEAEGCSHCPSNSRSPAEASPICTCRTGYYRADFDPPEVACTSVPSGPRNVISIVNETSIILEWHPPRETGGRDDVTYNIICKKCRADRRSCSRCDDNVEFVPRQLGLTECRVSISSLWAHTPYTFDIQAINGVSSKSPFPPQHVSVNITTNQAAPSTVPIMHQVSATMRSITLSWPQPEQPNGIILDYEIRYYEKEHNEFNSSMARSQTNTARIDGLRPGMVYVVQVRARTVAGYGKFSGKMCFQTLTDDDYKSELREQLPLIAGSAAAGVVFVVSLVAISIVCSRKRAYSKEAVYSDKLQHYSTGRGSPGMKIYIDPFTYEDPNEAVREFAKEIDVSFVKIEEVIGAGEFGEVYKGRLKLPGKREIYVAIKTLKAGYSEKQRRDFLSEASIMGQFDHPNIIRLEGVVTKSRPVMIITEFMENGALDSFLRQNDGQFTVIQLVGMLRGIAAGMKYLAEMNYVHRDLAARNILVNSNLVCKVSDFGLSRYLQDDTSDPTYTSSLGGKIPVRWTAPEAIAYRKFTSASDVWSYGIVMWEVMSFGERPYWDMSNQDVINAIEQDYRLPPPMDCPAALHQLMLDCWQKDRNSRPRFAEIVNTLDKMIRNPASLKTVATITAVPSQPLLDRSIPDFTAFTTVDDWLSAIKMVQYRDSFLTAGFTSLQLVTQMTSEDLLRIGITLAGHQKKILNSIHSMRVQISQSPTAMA
In the case of FRPPYYHRNCM [HGD_Y334], the phosphorylation enrichment is reported as 0.429. LEGKEYRMSGE [KRT3_Y511_E509K] showed a phosphorylation enrichment of 0.434. PLDGEYFTLQV [TP53_Y327_I332V] gave a phosphorylation enrichment of 2.21. DNEALYDTCFR [TUBB2B_Y208_I210T] was tested, and the phosphorylation enrichment was 2.85. AALVQYYMEHH [PTPN11_Y80_E76A] showed a phosphorylation enrichment of 1.9. With INMKEYCKKDY [NTN1_Y490_K489E] the phosphorylation enrichment was 0.461. SLEKGYELPDG [ACTC1_Y242_S241G] showed a phosphorylation enrichment of 0.475. In the case of RYVTRSIYNRE [HLA-DQB1_Y62_Y62S], the phosphorylation enrichment is reported as 0.226. With CENCHYPILPL [LCK_Y25_V28L] the phosphorylation enrichment was 0.43. For MHRRQYELLGG [GNAS_Y391_L388R], the phosphorylation enrichment was 0.28. Sequence DYSLKYATDIP [APC_Y1183] has a phosphorylation enrichment of 0.78. With EIKLAYRRRPP [GRIN2B_Y1109_E1106K] the phosphorylation enrichment was 0.568. NIEPIYLNMLL [ATR_Y317_V316I] showed a phosphorylation enrichment of 13.8. Sequence AGIVDYNIIGW [MYH7_Y588] has a phosphorylation enrichment of 0.636. With VLVSQYEKLNA [AMZ2_Y26] the phosphorylation enrichment was 0.524. FSAPNCCYRCG [PPP2CA_Y265_Y265C] was tested, and the phosphorylation enrichment was 0.671. In the case of RYVSRYIYNRE [HLA-DQB1_Y62_T60S], the phosphorylation enrichment is reported as 0.922. For IFSGIYFKPES [L2HGDH_Y102_H98Y_YF], the phosphorylation enrichment was 1.84. YENGEYIIRQG [PRKG1_Y247] gave a phosphorylation enrichment of 0.552. RLSVDCGKKSK [TUBA4A_Y161_Y161C] was tested, and the phosphorylation enrichment was 1.03. Work on KSVITYSPTTG [ITGB3BP_Y32] yielded a phosphorylation enrichment of 0.325. In the case of CTTIHYIYMCN [TP53_Y234_N235I], the phosphorylation enrichment is reported as 0.459. KMKGEYYRYLA [YWHAG_Y130_D129E] showed a phosphorylation enrichment of 0.639. LSPPVYLTNEW [NRK_Y885_I880L] was tested, and the phosphorylation enrichment was 0.736. Sequence LIEQAYDNLHE [PRPF8_Y871_P874L] has a phosphorylation enrichment of 0.623. FCRIMYDIFPF [INTS13_Y67_YF] was tested, and the phosphorylation enrichment was 2.66. GRTNIYNNKKD [SLC26A3_Y520_K521N] gave a phosphorylation enrichment of 0.311. With LISVSYDDWDY [GRIN2A_Y281] the phosphorylation enrichment was 0.813. ETAENYLGFTA [HSPA9_Y181_H184Y_YF] was tested, and the phosphorylation enrichment was 0.743. With MKKMHYVDPDH [ST3GAL5_Y99] the phosphorylation enrichment was 0.32. With DASAVYLHDFQ [PLCG2_Y242] the phosphorylation enrichment was 0.528. Work on DFPGIYSGYDD [POLR1C_Y33_N32I] yielded a phosphorylation enrichment of 0.627. IVAREYYSDAD [CAMK2A_Y106_E109D] gave a phosphorylation enrichment of 0.775.

These sequences were tested against MERTK (UniProt Q12866) in the same assay as above.
MERTK, sequence (Q12866 whole entry, looked up): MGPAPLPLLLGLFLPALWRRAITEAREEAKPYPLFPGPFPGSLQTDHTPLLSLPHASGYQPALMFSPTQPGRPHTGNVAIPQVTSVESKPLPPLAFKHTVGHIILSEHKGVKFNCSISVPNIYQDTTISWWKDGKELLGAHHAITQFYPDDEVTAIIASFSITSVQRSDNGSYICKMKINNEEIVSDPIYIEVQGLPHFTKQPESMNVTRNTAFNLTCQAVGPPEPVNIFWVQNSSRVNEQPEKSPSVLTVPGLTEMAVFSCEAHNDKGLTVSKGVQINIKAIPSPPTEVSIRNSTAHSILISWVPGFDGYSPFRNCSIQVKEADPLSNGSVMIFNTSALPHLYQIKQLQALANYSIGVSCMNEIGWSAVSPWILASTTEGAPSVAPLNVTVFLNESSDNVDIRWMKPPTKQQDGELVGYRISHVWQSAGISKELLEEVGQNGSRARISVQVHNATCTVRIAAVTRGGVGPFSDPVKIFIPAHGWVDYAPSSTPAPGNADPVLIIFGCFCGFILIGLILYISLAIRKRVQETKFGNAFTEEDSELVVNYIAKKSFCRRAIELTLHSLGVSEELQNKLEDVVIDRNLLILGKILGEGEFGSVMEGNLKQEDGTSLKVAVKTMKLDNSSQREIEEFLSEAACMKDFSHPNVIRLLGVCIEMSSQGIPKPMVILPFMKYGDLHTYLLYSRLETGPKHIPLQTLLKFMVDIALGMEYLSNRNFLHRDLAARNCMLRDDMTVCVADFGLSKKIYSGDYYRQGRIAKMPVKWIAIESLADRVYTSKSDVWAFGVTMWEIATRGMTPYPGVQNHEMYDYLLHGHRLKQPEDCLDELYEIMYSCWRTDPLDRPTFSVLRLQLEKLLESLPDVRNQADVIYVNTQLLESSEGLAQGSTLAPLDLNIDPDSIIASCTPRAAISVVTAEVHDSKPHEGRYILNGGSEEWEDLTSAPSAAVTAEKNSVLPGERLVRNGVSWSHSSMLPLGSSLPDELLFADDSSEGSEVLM
Sequence FRPPYYHRNCM [HGD_Y334] has a phosphorylation enrichment of 0.426. Work on LEGKEYRMSGE [KRT3_Y511_E509K] yielded a phosphorylation enrichment of 0.439. For PLDGEYFTLQV [TP53_Y327_I332V], the phosphorylation enrichment was 0.494. For DNEALYDTCFR [TUBB2B_Y208_I210T], the phosphorylation enrichment was 6.63. Work on AALVQYYMEHH [PTPN11_Y80_E76A] yielded a phosphorylation enrichment of 0.68. Sequence INMKEYCKKDY [NTN1_Y490_K489E] has a phosphorylation enrichment of 0.364. With SLEKGYELPDG [ACTC1_Y242_S241G] the phosphorylation enrichment was 0.35. Sequence RYVTRSIYNRE [HLA-DQB1_Y62_Y62S] has a phosphorylation enrichment of 0.601. CENCHYPILPL [LCK_Y25_V28L] gave a phosphorylation enrichment of 0.357. For MHRRQYELLGG [GNAS_Y391_L388R], the phosphorylation enrichment was 0.391. DYSLKYATDIP [APC_Y1183] showed a phosphorylation enrichment of 0.5. Work on EIKLAYRRRPP [GRIN2B_Y1109_E1106K] yielded a phosphorylation enrichment of 0.652. NIEPIYLNMLL [ATR_Y317_V316I] was tested, and the phosphorylation enrichment was 6.85. Sequence AGIVDYNIIGW [MYH7_Y588] has a phosphorylation enrichment of 0.349. VLVSQYEKLNA [AMZ2_Y26] showed a phosphorylation enrichment of 0.434. FSAPNCCYRCG [PPP2CA_Y265_Y265C] showed a phosphorylation enrichment of 0.505. For RYVSRYIYNRE [HLA-DQB1_Y62_T60S], the phosphorylation enrichment was 0.993. Sequence IFSGIYFKPES [L2HGDH_Y102_H98Y_YF] has a phosphorylation enrichment of 6. YENGEYIIRQG [PRKG1_Y247] gave a phosphorylation enrichment of 0.386. RLSVDCGKKSK [TUBA4A_Y161_Y161C] was tested, and the phosphorylation enrichment was 0.432. In the case of KSVITYSPTTG [ITGB3BP_Y32], the phosphorylation enrichment is reported as 0.403. CTTIHYIYMCN [TP53_Y234_N235I] was tested, and the phosphorylation enrichment was 0.281. With KMKGEYYRYLA [YWHAG_Y130_D129E] the phosphorylation enrichment was 0.957. Work on LSPPVYLTNEW [NRK_Y885_I880L] yielded a phosphorylation enrichment of 0.616. LIEQAYDNLHE [PRPF8_Y871_P874L] gave a phosphorylation enrichment of 0.426. FCRIMYDIFPF [INTS13_Y67_YF] gave a phosphorylation enrichment of 4.83. GRTNIYNNKKD [SLC26A3_Y520_K521N] gave a phosphorylation enrichment of 0.301. Work on LISVSYDDWDY [GRIN2A_Y281] yielded a phosphorylation enrichment of 0.691. ETAENYLGFTA [HSPA9_Y181_H184Y_YF] showed a phosphorylation enrichment of 0.514. Sequence MKKMHYVDPDH [ST3GAL5_Y99] has a phosphorylation enrichment of 0.332. Work on DASAVYLHDFQ [PLCG2_Y242] yielded a phosphorylation enrichment of 0.477. Sequence DFPGIYSGYDD [POLR1C_Y33_N32I] has a phosphorylation enrichment of 0.565. IVAREYYSDAD [CAMK2A_Y106_E109D] was tested, and the phosphorylation enrichment was 0.41.

The sequences below were run against Fyn (UniProt P06241) in the same assay as above.
Fyn, sequence (P06241 whole entry, looked up): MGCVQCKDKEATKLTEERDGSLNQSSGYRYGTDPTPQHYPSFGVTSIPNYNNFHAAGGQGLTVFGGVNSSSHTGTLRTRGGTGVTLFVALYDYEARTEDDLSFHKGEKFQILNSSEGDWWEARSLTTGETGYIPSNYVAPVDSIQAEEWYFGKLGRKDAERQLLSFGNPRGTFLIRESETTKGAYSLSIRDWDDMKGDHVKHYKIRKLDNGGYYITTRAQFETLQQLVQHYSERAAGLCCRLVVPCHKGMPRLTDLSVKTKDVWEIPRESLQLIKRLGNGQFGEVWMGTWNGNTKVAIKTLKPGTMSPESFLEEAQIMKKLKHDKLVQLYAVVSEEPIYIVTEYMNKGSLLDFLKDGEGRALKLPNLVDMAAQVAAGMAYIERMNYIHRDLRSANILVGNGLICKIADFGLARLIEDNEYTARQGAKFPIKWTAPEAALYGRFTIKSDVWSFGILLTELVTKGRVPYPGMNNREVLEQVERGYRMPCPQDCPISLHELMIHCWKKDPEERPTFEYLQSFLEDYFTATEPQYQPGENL
Sequence FRPPYYHRNCM [HGD_Y334] has a phosphorylation enrichment of 0.418. For LEGKEYRMSGE [KRT3_Y511_E509K], the phosphorylation enrichment was 0.456. PLDGEYFTLQV [TP53_Y327_I332V] showed a phosphorylation enrichment of 5.07. DNEALYDTCFR [TUBB2B_Y208_I210T] showed a phosphorylation enrichment of 6.81. In the case of AALVQYYMEHH [PTPN11_Y80_E76A], the phosphorylation enrichment is reported as 0.529. With INMKEYCKKDY [NTN1_Y490_K489E] the phosphorylation enrichment was 0.451. With SLEKGYELPDG [ACTC1_Y242_S241G] the phosphorylation enrichment was 0.49. For RYVTRSIYNRE [HLA-DQB1_Y62_Y62S], the phosphorylation enrichment was 0.553. With CENCHYPILPL [LCK_Y25_V28L] the phosphorylation enrichment was 0.391. For MHRRQYELLGG [GNAS_Y391_L388R], the phosphorylation enrichment was 0.371. DYSLKYATDIP [APC_Y1183] gave a phosphorylation enrichment of 0.582. With EIKLAYRRRPP [GRIN2B_Y1109_E1106K] the phosphorylation enrichment was 0.526. Sequence NIEPIYLNMLL [ATR_Y317_V316I] has a phosphorylation enrichment of 8.37. Work on AGIVDYNIIGW [MYH7_Y588] yielded a phosphorylation enrichment of 0.497. VLVSQYEKLNA [AMZ2_Y26] showed a phosphorylation enrichment of 0.438. Work on FSAPNCCYRCG [PPP2CA_Y265_Y265C] yielded a phosphorylation enrichment of 0.518. RYVSRYIYNRE [HLA-DQB1_Y62_T60S] showed a phosphorylation enrichment of 0.829. IFSGIYFKPES [L2HGDH_Y102_H98Y_YF] gave a phosphorylation enrichment of 2.7. Sequence YENGEYIIRQG [PRKG1_Y247] has a phosphorylation enrichment of 0.453. RLSVDCGKKSK [TUBA4A_Y161_Y161C] was tested, and the phosphorylation enrichment was 0.551. In the case of KSVITYSPTTG [ITGB3BP_Y32], the phosphorylation enrichment is reported as 0.38. CTTIHYIYMCN [TP53_Y234_N235I] gave a phosphorylation enrichment of 0.254. KMKGEYYRYLA [YWHAG_Y130_D129E] showed a phosphorylation enrichment of 0.607. LSPPVYLTNEW [NRK_Y885_I880L] was tested, and the phosphorylation enrichment was 0.587. Work on LIEQAYDNLHE [PRPF8_Y871_P874L] yielded a phosphorylation enrichment of 0.714. With FCRIMYDIFPF [INTS13_Y67_YF] the phosphorylation enrichment was 1.31. Sequence GRTNIYNNKKD [SLC26A3_Y520_K521N] has a phosphorylation enrichment of 0.347. In the case of LISVSYDDWDY [GRIN2A_Y281], the phosphorylation enrichment is reported as 0.773. In the case of ETAENYLGFTA [HSPA9_Y181_H184Y_YF], the phosphorylation enrichment is reported as 0.505. For MKKMHYVDPDH [ST3GAL5_Y99], the phosphorylation enrichment was 0.364. Sequence DASAVYLHDFQ [PLCG2_Y242] has a phosphorylation enrichment of 0.533. Work on DFPGIYSGYDD [POLR1C_Y33_N32I] yielded a phosphorylation enrichment of 6.48. With IVAREYYSDAD [CAMK2A_Y106_E109D] the phosphorylation enrichment was 0.473.

Each sequence was assayed against Fes (UniProt P07332) in the same assay as above.
Fes, sequence (P07332 whole entry, looked up): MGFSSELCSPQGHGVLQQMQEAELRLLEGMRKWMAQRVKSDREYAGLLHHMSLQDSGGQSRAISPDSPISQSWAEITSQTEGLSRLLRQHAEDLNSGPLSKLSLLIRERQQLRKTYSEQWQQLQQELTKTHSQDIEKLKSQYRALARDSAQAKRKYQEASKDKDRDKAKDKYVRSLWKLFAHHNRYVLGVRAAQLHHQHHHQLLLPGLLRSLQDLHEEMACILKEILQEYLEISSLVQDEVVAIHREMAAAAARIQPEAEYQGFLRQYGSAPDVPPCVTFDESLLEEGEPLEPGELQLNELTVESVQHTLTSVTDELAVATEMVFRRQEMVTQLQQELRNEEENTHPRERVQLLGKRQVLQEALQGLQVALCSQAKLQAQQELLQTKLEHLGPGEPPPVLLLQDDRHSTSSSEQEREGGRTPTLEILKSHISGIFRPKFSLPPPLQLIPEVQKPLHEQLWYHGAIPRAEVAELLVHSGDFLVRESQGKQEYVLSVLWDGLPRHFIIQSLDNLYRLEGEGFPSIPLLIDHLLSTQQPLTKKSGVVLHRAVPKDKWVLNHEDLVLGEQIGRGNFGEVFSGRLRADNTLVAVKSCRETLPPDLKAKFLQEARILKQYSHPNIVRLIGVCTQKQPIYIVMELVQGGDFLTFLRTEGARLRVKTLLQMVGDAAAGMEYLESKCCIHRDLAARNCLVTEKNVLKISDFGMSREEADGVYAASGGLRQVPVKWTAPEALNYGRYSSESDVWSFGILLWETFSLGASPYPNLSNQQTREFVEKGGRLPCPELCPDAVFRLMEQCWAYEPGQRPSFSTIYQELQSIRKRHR
For FRPPYYHRNCM [HGD_Y334], the phosphorylation enrichment was 0.88. LEGKEYRMSGE [KRT3_Y511_E509K] was tested, and the phosphorylation enrichment was 0.985. For PLDGEYFTLQV [TP53_Y327_I332V], the phosphorylation enrichment was 1.94. For DNEALYDTCFR [TUBB2B_Y208_I210T], the phosphorylation enrichment was 1.49. AALVQYYMEHH [PTPN11_Y80_E76A] was tested, and the phosphorylation enrichment was 0.912. Sequence INMKEYCKKDY [NTN1_Y490_K489E] has a phosphorylation enrichment of 0.944. For SLEKGYELPDG [ACTC1_Y242_S241G], the phosphorylation enrichment was 0.909. RYVTRSIYNRE [HLA-DQB1_Y62_Y62S] was tested, and the phosphorylation enrichment was 1.1. With CENCHYPILPL [LCK_Y25_V28L] the phosphorylation enrichment was 0.903. With MHRRQYELLGG [GNAS_Y391_L388R] the phosphorylation enrichment was 0.715. Work on DYSLKYATDIP [APC_Y1183] yielded a phosphorylation enrichment of 1.29. EIKLAYRRRPP [GRIN2B_Y1109_E1106K] was tested, and the phosphorylation enrichment was 0.532. NIEPIYLNMLL [ATR_Y317_V316I] was tested, and the phosphorylation enrichment was 3.2. Sequence AGIVDYNIIGW [MYH7_Y588] has a phosphorylation enrichment of 1.18. With VLVSQYEKLNA [AMZ2_Y26] the phosphorylation enrichment was 0.732. Work on FSAPNCCYRCG [PPP2CA_Y265_Y265C] yielded a phosphorylation enrichment of 1.21. RYVSRYIYNRE [HLA-DQB1_Y62_T60S] showed a phosphorylation enrichment of 1.11. With IFSGIYFKPES [L2HGDH_Y102_H98Y_YF] the phosphorylation enrichment was 0.78. YENGEYIIRQG [PRKG1_Y247] showed a phosphorylation enrichment of 1.04. RLSVDCGKKSK [TUBA4A_Y161_Y161C] showed a phosphorylation enrichment of 0.825. KSVITYSPTTG [ITGB3BP_Y32] was tested, and the phosphorylation enrichment was 0.592. For CTTIHYIYMCN [TP53_Y234_N235I], the phosphorylation enrichment was 0.989. With KMKGEYYRYLA [YWHAG_Y130_D129E] the phosphorylation enrichment was 0.961. LSPPVYLTNEW [NRK_Y885_I880L] was tested, and the phosphorylation enrichment was 1.26. LIEQAYDNLHE [PRPF8_Y871_P874L] showed a phosphorylation enrichment of 1.38. Work on FCRIMYDIFPF [INTS13_Y67_YF] yielded a phosphorylation enrichment of 1.74. Sequence GRTNIYNNKKD [SLC26A3_Y520_K521N] has a phosphorylation enrichment of 0.632. LISVSYDDWDY [GRIN2A_Y281] gave a phosphorylation enrichment of 1.92. In the case of ETAENYLGFTA [HSPA9_Y181_H184Y_YF], the phosphorylation enrichment is reported as 1.1. In the case of MKKMHYVDPDH [ST3GAL5_Y99], the phosphorylation enrichment is reported as 0.513. DASAVYLHDFQ [PLCG2_Y242] gave a phosphorylation enrichment of 1.31. In the case of DFPGIYSGYDD [POLR1C_Y33_N32I], the phosphorylation enrichment is reported as 1.05. IVAREYYSDAD [CAMK2A_Y106_E109D] gave a phosphorylation enrichment of 1.13.
